Residue numbers refer to the chain shown, from its start. * marks the point of attachment. CH2Cl = ClC*
Tests used:
[1] = molecular target: T1, HGFA (Homo sapiens, UniProt Q04756); assay: Ab40 binding to HGFA in the presence of active site inhibitors (surface plasmon resonance); conditions: active site inhibitor present; result in words
T1 construct: His6 behind an AAA linker) (C); made in house; host or cells: baculovirus - insect cell expression system
T1 sequence (Q04756 373-655): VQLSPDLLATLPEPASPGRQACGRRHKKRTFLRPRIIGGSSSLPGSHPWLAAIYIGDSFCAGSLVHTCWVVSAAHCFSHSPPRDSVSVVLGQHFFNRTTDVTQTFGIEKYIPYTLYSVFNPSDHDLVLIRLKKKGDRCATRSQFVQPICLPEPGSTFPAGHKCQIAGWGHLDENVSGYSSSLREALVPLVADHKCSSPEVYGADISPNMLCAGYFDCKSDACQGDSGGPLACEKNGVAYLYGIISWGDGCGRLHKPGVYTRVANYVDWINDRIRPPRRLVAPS
Text: FIG. 3: Effects of active site inhibitors on antibody binding to HGFA. (a-b, e-f) Surface plasmon resonance (BIAcore) measurements of binding to immobilized antibodies, Ab40 (a-b) or Ab40.ΔTrp (e-f), after co-injection of HGFA (a,e) or HGFA-KQLR (b, f) complex (“KQLR” disclosed as SEQ ID NO: 21). (c) Competition binding (BIAcore) of HGFA to immobilized Ab40 in presence of different concentrations of KD1. (d) Competition binding ELISA measuring binding of HGFA to biotinylated KD1 in the presence of increasing antibody concentrations.
Antibody reformatting and determination of dissociation rate constants to HGFA: Anti-HGFA Fabs were reformatted into human IgG1 by cloning the VL and VH regions of individual clones into LPG3 and LPG4 vector, respectively (Liang et al, 2007). The full-length antibodies were transiently expressed in Chinese Hamster Ovary cells and purified on a protein-A column. […] Association rates (kon) and dissociation rates (koff) were obtained by using a simple one-to-one Langmuir binding model (BIAEvaluation) and the equilibrium dissociation constants (KD) were calculated (koff/kon). […] The values of Req (20-80% of Rmax) were calculated and plotted individually against C (concentration of HGFA or HGFA-KQLR (“KQLR” disclosed as SEQ ID NO: 21)) using BIAEvaluation Software to determine KD at the steady state analysis. […]

[2] = molecular target: HGFA (Val373-Ser655 plus tag …) (human) (UniProt Q04756); assay: cell-based or functional assay
[3] = molecular target: HGFA (Val373-Ser655 plus tag …) (human) (UniProt Q04756); assay: SPR (BIAcore), IgG captured by anti-human IgG, HGFA injected
[4] = molecular target: T2, HGFA (Val373-Ser655 plus tag …) (human, UniProt Q04756 373-655); assay: SPR (BIAcore)
T2 construct: Made in baculovirus-insect cells, active-site titrated
T2 sequence: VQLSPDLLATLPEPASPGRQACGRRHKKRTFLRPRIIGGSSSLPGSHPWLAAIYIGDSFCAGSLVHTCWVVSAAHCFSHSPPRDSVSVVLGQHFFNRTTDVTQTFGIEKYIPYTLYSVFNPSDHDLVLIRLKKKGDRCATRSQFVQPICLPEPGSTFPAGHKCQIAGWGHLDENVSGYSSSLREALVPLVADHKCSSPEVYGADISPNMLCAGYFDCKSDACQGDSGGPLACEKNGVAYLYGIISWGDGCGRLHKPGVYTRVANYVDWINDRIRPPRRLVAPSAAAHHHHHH

[5] = molecular target: T3, HGFA-KQLR complex (human, UniProt Q04756 373-655, N-terminal acetyl; C-terminal chloromethyl ketone, reacted with Ser195 and His57 of HGFA; Ser195 and His57 (chymotrypsinogen numbering) covalently linked to Ac-KQLR-cmk); assay: SPR (BIAcore)
T3 construct: Made by incubating HGFA with a two fold molar excess of Ac-KQLR-cmk for 2 hours, then size exclusion chromatography

[6] = molecular target: T2, HGFA (Val373-Ser655 plus tag …); assay: cell-based or functional assay
[7] = molecular target: T2, HGFA (Val373-Ser655 plus tag …); assay: SPR (BIAcore), IgG captured by anti-human IgG, HGFA injected
[8] = molecular target: T3, HGFA-KQLR complex; assay: SPR (BIAcore), IgG captured by anti-human IgG, HGFA-KQLR complex injected
[9] = molecular target: T2, HGFA (Val373-Ser655 plus tag …); assay: competition ELISA: plate coated with HGFA, incubated with increasing Ab40, then 1 nM biotinylated KD1 (blocked ligand) detected with streptavidin-HRP
[10] = molecular target: T2, HGFA (Val373-Ser655 plus tag …); assay: SPR (BIAcore), steady state affinity, IgG captured, HGFA injected
[11] = molecular target: T3, HGFA-KQLR complex; assay: SPR (BIAcore), steady state affinity, IgG captured, HGFA-KQLR complex injected

With “Ac-KQLR-chloromethyl ketone (Ac-KQLR-CH2Cl; SMILES CC(=O)N[C@@H](CCCCN)C(=O)N[C@@H](CCC(N)=O)C(=O)N[C@@H](CC(C)C)C(=O)N[C@@H](CCCNC(=N)N)C(=O)CCl) [Ac-KQLR-cmk]” the “interference with binding of Ab40 to HGFA” value [1] was “interfered”.

For `N=C(N)c1ccccc1` [Benzamidine], the “interference with binding of Ab40 to HGFA” value [1] was “did not interfere”.

B1: Ab39 (antibody, from a related filing, human IgG1, V domains shown)
VH: EVQLVESGGGLVQPGGSLRLSCAASGFTFNGTYIHWVRQAPGKGLEWVGGIYPAGGATYYADSVKGRFTISRDNSKNTLYLQMNSLRAEDTAVYYCAKWWAWPAFDYWGQGTLVTVSS
VL: DIQMTQSPSSLSASVGDRVTITCRASQDVSTAVAWYQQKPGKAPKLLIYSASFLYSGVPSRFSGSGSGTDFTLTISSLQPEDFATYYCQQSYTTPPTFGQGTKVEIKR
B1 showed a Km^app of S-2266 hydrolysis at 1 µM Ab39 (control Km=0.25 mM) [2] of 0.91 mM, a Vmax^app of S-2266 hydrolysis at 1 µM Ab39 (control Vmax=0.99 µM pNA/min) [2] of 0.97 µM pNA/min and a Kd [3] of 10.3 nM. It also gave a koff [3] of 0.0053 s⁻¹ and a kon [3] of 520000 M⁻¹ s⁻¹.

B2: Ab40 (antibody, V domains shown)
VH: B1 VH with F29I, R72A, N74T, L79A
VL: B1 VL with Y92N, T93R, T94A, P96A
With B2 the “fold improvement in binding affinity over Ab39” value [4] was 64 fold, the “fold decrease in affinity compared to HGFA” value [5] was 8 fold and the “IC50 (read off the curve), HGFA fractional activity vi/vo on S-2266” value [6] was about 8 nM. For the same molecule, the Kd [7] was 0.16 nM, the koff [7] was 0.000175 s⁻¹ and the kon [7] was 1.08e+06 M⁻¹ s⁻¹. It also gave a Kd [8] of 1.35 nM, a koff [8] of 0.00043 s⁻¹ and a kon [8] of 320000 M⁻¹ s⁻¹. For the same molecule, the “IC50 (read off the curve)” value [9] was about 1 nM.

B3: Ab40.ΔTrp (antibody, V domains shown)
VH: EVQLVESGGGLVQPGGSLRLSCAASGFTINGTYIHWVRQAPGKGLEWVGGIYPAGGATYYADSVKGRFTISADTSKNTAYLQMNSLRAEDTAVYYCAKWAWPAFDYWGQGTLVTVSS
VL: B1 VL with Y92N, T93R, T94A, P96A
B3 was tested, and the Kd [10] was 150 nM and the Kd [11] was 161 nM.

— patent publication US20110206704A1, “Methods and compositions for modulating hepatocyte growth factor activator” (Genentech, Inc., priority 2009, published 2011)
